Laboratory results reported in US8709448B2, “Anti-infective agents and uses thereof” (priority 2008, dated 2014).

Tested on: PBMC

Substance: IFNα
- effect on overall PBMC culture viability: no effect
